Reference: the supplement of paper PMC5998384

Tests used:
HeLa Kyoto [1] = assay: thermal stability score vs G1/S (z-score of summed log2 fold changes over temperatures); higher = more thermally stable than in G1/S
HeLa Kyoto [2] = assay: solubility change mitosis vs G1/S (difference of NP-40 vs SDS log2 ratios) (log2 ratio difference); higher = more soluble in mitosis
HeLa Kyoto [3] = assay: melting temperature (median over replicates), in situ; higher = more thermally stable
HeLa Kyoto [4] = assay: solubility in G1/S (NP-40 vs SDS abundance) (log2 ratio); higher = more soluble; conditions: cell cycle stage: G1/S
[5] = cell cycle stage: early G1 (4.5 h after nocodazole release)
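Throughout, for melting temperature (median over replicates), in situ: HeLa Kyoto cells synchronized by double thymidine or nocodazole block, proteins quantified by TMT10plex mass spectrometry, three independent biological replicates.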
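Throughout, for solubility change mitosis vs G1/S (difference of NP-40 vs SDS log2 ratios): synchronized HeLa Kyoto cells (double thymidine block for G1/S, nocodazole release for mitosis), protein amounts in NP-40 versus SDS lysates quantified by mass spectrometry, three biological replicates.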
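Throughout, for solubility in G1/S (NP-40 vs SDS abundance): HeLa Kyoto cells arrested at G1/S by double thymidine block, proteins quantified by TMT10plex mass spectrometry in mild NP-40 versus SDS extracts, three biological replicates.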
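Throughout, for thermal stability score vs G1/S (z-score of summed log2 fold changes over temperatures): synchronized HeLa Kyoto cells, proteins quantified by TMT10plex mass spectrometry, three biological replicates, mitosis taken 0.5 h after nocodazole release, G1/S directly after double thymidine block.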

Sequence | thermal stability score (HeLa Kyoto [1]; [5]) | thermal stability score (HeLa Kyoto [1]; cell cycle stage: mitosis) | solubility change mitosis (log2) (HeLa Kyoto [2]) | melting temperature (HeLa Kyoto [3]; cell cycle stage: G1/S) | melting temperature (HeLa Kyoto [3]; cell cycle stage: mitosis) | solubility in G1/S (log2) (HeLa Kyoto [4])
MGDPAPARSLDDIDLSALRDPAGIFELVEVVGNGTYGQVYKGRHVKTGQLAAIKVMDVTEDEEEEIKQEINMLKKYSHHRNIATYYGAFIKKSPPGNDDQLWLVMEFCGAGSVTDLVKNTKGNALKEDCIAYICREILRGLAHLHAHKVIHRDIKGQNVLLTENAEVKLVDFGVSAQLDRTVGRRNTFIGTPYWMAPEVIACDENPDATYDYRSDIWSLGITAIEMAEGAPPLCDMHPMRALFLIPRNPPPRLKSKKWSKKFIDFIDTCLIKTYLSRPPTEQLLKFPFIRDQPTERQVRIQLKDHIDRSRKKRGEKEETEYEYSGSEEEDDSHGEEGEPSSIMNVPGESTLRREFLRLQQENKSNSEALKQQQQLQQQQQRDPEAHIKHLLHQRQRRIEEQKEERRRVEEQQRREREQRKLQEKEQQRRLEDMQALRREEERRQAEREQEYKRKQLEEQRQSERLQRQLQQEHAYLKSLQQQQQQQQLQKQQQQQLLPGDRKPLYHYGRGMNPADKPAWAREVEERTRMNKQQNSPLAKSKPGSTGPEPPIPQASPGPPGPLSQTPPMQRPVEPQEGPHKSLVAHRVPLKPYAAPVPRSQSLQDQPTRNLAAFPASHDPDPAIPAPTATPSARGAVIRQNSDPTSEGPGPSPNPPAWVRPDNEAPPKVPQRTSSIATALNTSGAGGSRPAQAVRARPRSNSAWQIYLQRRAERGTPKPPGPPAQPPGPPNASSNPDLRRSDPGWERSDSVLPASHGHLPQAGSLERNRVGVSSKPDSSPVLSPGNKAKPDDHRSRPGRPADFVLLKERTLDEAPRPPKKAMDYSSSSEEVESSEDDEEEGEGGPAEGSRDTPGGRSDGDTDSVSTMVVHDVEEITGTQPPYGGGTMVVQRTPEEERNLLHADSNGYTNLPDVVQPSHSPTENSKGQSPPSKDGSGDYQSRGLVKAPGKSSFTMFVDLGIYQPGGSGDSIPITALVGGEGTRLDQLQYDVRKGSVVNVNPTNTRAHSETPEIRKYKKRFNSEILCAALWGVNLLVGTENGLMLLDRSGQGKVYGLIGRRRFQQMDVLEGLNLLITISGKRNKLRVYYLSWLRNKILHNDPEVEKKQGWTTVGDMEGCGHYRVVKYERIKFLVIALKSSVEVYAWAPKPYHKFMAFKSFADLPHRPLLVDLTVEEGQRLKVIYGSSAGFHAVDVDSGNSYDIYIPVHIQSQITPHAIIFLPNTDGMEMLLCYEDEGVYVNTYGRIIKDVVLQWGEMPTSVAYICSNQIMGWGEKAIEIRSVETGHLDGVFMHKRAQRLKFLCERNDKVFFASVRSGGSSQVYFMTLNRNCIMNW [MINK1] | 0.759 | 2.05 | 0.157 | 49.8 °C | 50.7 °C | -0.0708
MERPLCSHLCSCLAMLALLSPLSLAQYDSWPHYPEYFQQPAPEYHQPQAPANVAKIQLRLAGQKRKHSEGRVEVYYDGQWGTVCDDDFSIHAAHVVCRELGYVEAKSWTASSSYGKGEGPIWLDNLHCTGNEATLAACTSNGWGVTDCKHTEDVGVVCSDKRIPGFKFDNSLINQIENLNIQVEDIRIRAILSTYRKRTPVMEGYVEVKEGKTWKQICDKHWTAKNSRVVCGMFGFPGERTYNTKVYKMFASRRKQRYWPFSMDCTGTEAHISSCKLGPQVSLDPMKNVTCENGLPAVVSCVPGQVFSPDGPSRFRKAYKPEQPLVRLRGGAYIGEGRVEVLKNGEWGTVCDDKWDLVSASVVCRELGFGSAKEAVTGSRLGQGIGPIHLNEIQCTGNEKSIIDCKFNAESQGCNHEEDAGVRCNTPAMGLQKKLRLNGGRNPYEGRVEVLVERNGSLVWGMVCGQNWGIVEAMVVCRQLGLGFASNAFQETWYWHGDVNSNKVVMSGVKCSGTELSLAHCRHDGEDVACPQGGVQYGAGVACSETAPDLVLNAEMVQQTTYLEDRPMFMLQCAMEENCLSASAAQTDPTTGYRRLLRFSSQIHNNGQSDFRPKNGRHAWIWHDCHRHYHSMEVFTHYDLLNLNGTKVAEGHKASFCLEDTECEGDIQKNYECANFGDQGITMGCWDMYRHDIDCQWVDITDVPPGDYLFQVVINPNFEVAESDYSNNIMKCRSRYDGHRIWMYNCHIGGSFSEETEKKFEHFSGLLNNQLSPQ [LOXL2] | 2.38 | 4.28 | -0.173 | 54.3 °C | 54.7 °C | -0.152
MWRGLWTLAAQAARGPRRLCTRRSSGAPAPGSGATIFALSSGQGRCGIAVIRTSGPASGHALRILTAPRDLPLARHASLRLLSDPRSGEPLDRALVLWFPGPQSFTGEDCVEFHVHGGPAVVSGVLQALGSVPGLRPAEAGEFTRRAFANGKLNLTEVEGLADLIHAETEAQRRQALRQLDGELGHLCRGWAETLTKALAHVEAYIDFGEDDNLEEGVLEQADIEVRALQVALGAHLRDARRGQRLRSGVHVVVTGPPNAGKSSLVNLLSRKPVSIVSPEPGTTRDVLETPVDLAGFPVLLSDTAGLREGVGPVEQEGVRRARERLEQADLILAMLDASDLASPSSCNFLATVVASVGAQSPSDSSQRLLLVLNKSDLLSPEGPGPGPDLPPHLLLSCLTGEGLDGLLEALRKELAAVCGDPSTDPPLLTRARHQHHLQGCLDALGHYKQSKDLALAAEALRVARGHLTRLTGGGGTEEILDIIFQDFCVGK [GTPBP3] | -0.238 | -0.0908 | 0.0593 | 53.2 °C | 52.4 °C | 0.505
MDKNELVQKAKLAEQAERYDDMAACMKSVTEQGAELSNEERNLLSVAYKNVVGARRSSWRVVSSIEQKTEGAEKKQQMAREYREKIETELRDICNDVLSLLEKFLIPNASQAESKVFYLKMKGDYYRYLAEVAAGDDKKGIVDQSQQAYQEAFEISKKEMQPTHPIRLGLALNFSVFYYEILNSPEKACSLAKTAFDEAIAELDTLSEESYKDSTLIMQLLRDNLTLWTSDTQGDEAEAGEGGEN [YWHAZ] | -3.76 | -3.47 | 0.346 | 54.9 °C | 54.8 °C | 0.359
MARGSAVAWAALGPLLWGCALGLQGGMLYPQESPSRECKELDGLWSFRADFSDNRRRGFEEQWYRRPLWESGPTVDMPVPSSFNDISQDWRLRHFVGWVWYEREVILPERWTQDLRTRVVLRIGSAHSYAIVWVNGVDTLEHEGGYLPFEADISNLVQVGPLPSRLRITIAINNTLTPTTLPPGTIQYLTDTSKYPKGYFVQNTYFDFFNYAGLQRSVLLYTTPTTYIDDITVTTSVEQDSGLVNYQISVKGSNLFKLEVRLLDAENKVVANGTGTQGQLKVPGVSLWWPYLMHERPAYLYSLEVQLTAQTSLGPVSDFYTLPVGIRTVAVTKSQFLINGKPFYFHGVNKHEDADIRGKGFDWPLLVKDFNLLRWLGANAFRTSHYPYAEEVMQMCDRYGIVVIDECPGVGLALPQFFNNVSLHHHMQVMEEVVRRDKNHPAVVMWSVANEPASHLESAGYYLKMVIAHTKSLDPSRPVTFVSNSNYAADKGAPYVDVICLNSYYSWYHDYGHLELIQLQLATQFENWYKKYQKPIIQSEYGAETIAGFHQDPPLMFTEEYQKSLLEQYHLGLDQKRRKYVVGELIWNFADFMTEQSPTRVLGNKKGIFTRQRQPKSAAFLLRERYWKIANETRYPHSVAKSQCLENSLFT [GUSB] | -0.942 | -0.838 | -0.164 | 56.4 °C | 58 °C | 0.259
MGCTLSAEDKAAVERSKMIDRNLREDGEKAAKEVKLLLLGAGESGKSTIVKQMKIIHEDGYSEDECKQYKVVVYSNTIQSIIAIIRAMGRLKIDFGEAARADDARQLFVLAGSAEEGVMTPELAGVIKRLWRDGGVQACFSRSREYQLNDSASYYLNDLDRISQSNYIPTQQDVLRTRVKTTGIVETHFTFKDLYFKMFDVGGQRSERKKWIHCFEGVTAIIFCVALSDYDLVLAEDEEMNRMHESMKLFDSICNNKWFTETSIILFLNKKDLFEEKIKRSPLTICYPEYTGSNTYEEAAAYIQCQFEDLNRRKDTKEIYTHFTCATDTKNVQFVFDAVTDVIIKNNLKECGLY [GNAI3] | 0.761 | 0.823 | -0.175 | 53.5 °C | 54.2 °C | -0.638
MSEVTRSLLQRWGASFRRGADFDSWGQLVEAIDEYQILARHLQKEAQAQHNNSEFTEEQKKTIGKIATCLELRSAALQSTQSQEEFKLEDLKKLEPILKNILTYNKEFPFDVQPVPLRRILAPGEEENLEFEEDEEEGGAGAGSPDSFPARVPGTLLPRLPSEPGMTLLTIRIEKIGLKDAGQCIDPYITVSVKDLNGIDLTPVQDTPVASRKEDTYVHFNVDIELQKHVEKLTKGAAIFFEFKHYKPKKRFTSTKCFAFMEMDEIKPGPIVIELYKKPTDFKRKKLQLLTKKPLYLHLHQTLHKE [AIDA] | -0.484 | -0.48 | 0.0508 | 50.9 °C | 50.5 °C | 0.32
MKGKEEKEGGARLGAGGGSPEKSPSAQELKEQGNRLFVGRKYPEAAACYGRAITRNPLVAVYYTNRALCYLKMQQHEQALADCRRALELDGQSVKAHFFLGQCQLEMESYDEAIANLQRAYSLAKEQRLNFGDDIPSALRIAKKKRWNSIEERRIHQESELHSYLSRLIAAERERELEECQRNHEGDEDDSHVRAQQACIEAKHDKYMADMDELFSQVDEKRKKRDIPDYLCGKISFELMREPCITPSGITYDRKDIEEHLQRVGHFDPVTRSPLTQEQLIPNLAMKEVIDAFISENGWVEDY [STUB1] | 1.3 | 2.29 | 0.0745 | 46.7 °C | 49.5 °C | 0.397
MDTPPLSDSESESDESLVTDRELQDAFSRGLLKPGLNVVLEGPKKAVNDVNGLKQCLAEFKRDLEWVERLDVTLGPVPEIGGSEAPAPQNKDQKAVDPEDDFQREMSFYRQAQAAVLAVLPRLHQLKVPTKRPTDYFAEMAKSDLQMQKIRQKLQTKQAAMERSEKAKQLRALRKYGKKVQTEVLQKRQQEKAHMMNAIKKYQKGFSDKLDFLEGDQKPLAQRKKAGAKGQQMRKGPSAKRRYKNQKFGFGGKKKGSKWNTRESYDDVSSFRAKTAHGRGLKRPGKKGSNKRPGKRTREKMKNRTH [EBNA1BP2] | 0.765 | 0.121 | 1.38 | 54 °C | 53.4 °C | -1.71
MADEALAGLDEGALRKLLEVTADLAERRRIRSAIRELQRQELEREEEALASKRFRAERQDNKENWLHSQQREAEQRAALARLAGQLESMNDVEELTALLRSAGEYEERKLIRAAIRRVRAQEIEAATLAGRLYSGRPNSGSREDSKGLAAHRLEQCEVPEREEQEQQAEVSKPTPTPEGTSQDVTTVTLLLRAPPGSTSSSPASPSSSPTPASPEPPLEPAEAQCLTAEVPGSPEPPPSPPKTTSPEPQESPTLPSTEGQVVNKLLSGPKETPAAQSPTRGPSDTKRADVAGPRPCQRSLSVLSPRQPAQNRESTPLASGPSSFQRAGSVRDRVHKFTSDSPMAARLQDGTPQAALSPLTPARLLGPSLTSTTPASSSSGSSSRGPSDTSSRFSKEQRGVAQPLAQLRSCPQEEGPRGRGLAARPLENRAGGPVARSEEPGAPLPVAVGTAEPGGSMKTTFTIEIKDGRGQASTGRVLLPTGNQRAELTLGLRAPPTLLSTSSGGKSTITRVNSPGTLARLGSVTHVTSFSHAPPSSRGGCSIKMEAEPAEPLAAAVEAANGAEQTRVNKAPEGRSPLSAEELMTIEDEGVLDKMLDQSTDFEERKLIRAALRELRQRKRDQRDKERERRLQEARGRPGEGRGNTATETTTRHSQRAADGSAVSTVTKTERLVHSNDGTRTARTTTVESSFVRRSENGSGSTMMQTKTFSSSSSSKKMGSIFDREDQASPRAGSLAALEKRQAEKKKELMKAQSLPKTSASQARKAMIEKLEKEGAAGSPGGPRAAVQRSTSFGVPNANSIKQMLLDWCRAKTRGYEHVDIQNFSSSWSDGMAFCALVHNFFPEAFDYGQLSPQNRRQNFEVAFSSAEMLVDCVPLVEVDDMMIMGKKPDPKCVFTYVQSLYNHLRRHELRLRGKNV [SMTN] | 0.326 | 0.869 | 0.208 | 48.9 °C | 50 °C | -0.058
MSGEENPASKPTPVQDVQGDGRWMSLHHRFVADSKDKEPEVVFIGDSLVQLMHQCEIWRELFSPLHALNFGIGGDGTQHVLWRLENGELEHIRPKIVVVWVGTNNHGHTAEQVTGGIKAIVQLVNERQPQARVVVLGLLPRGQHPNPLREKNRQVNELVRAALAGHPRAHFLDADPGFVHSDGTISHHDMYDYLHLSRLGYTPVCRALHSLLLRLLAQDQGQGAPLLEPAP [PAFAH1B3] | 0.482 | 1.01 | -0.0232 | 50.6 °C | 51 °C | 0.751
